Laboratory results reported in PMC6793942, “The Ps and Qs of alarmone synthesis in Staphylococcus aureus” (PLoS ONE, 2019).

Assays:
[1] = target: T1, EF-RelQ (Enterococcus faecalis, UniProt Q830U9); settings: allosteric activator; ppGpp synthesis from 1 mM GDP + 1 mM ATP; 2 mM MgCl2; pH 9.0; 37°C
T1 construct: gene EF_2671
Excerpt: AMP formation by anion exchange chromatography, fold change of rate on EF-RelQ

[2] = test system: Nc1nc2c(ncn2[C@@H]2O[C@H](COP(=O)(O)O)[C@@H](O)[C@H]2O)c(=O)[nH]1; assay: product formation by anion exchange chromatography; assay type: biochemical, Staphylococcus aureus; settings: pGpp synthesis, 2.5 mM ATP, 5 mM MgCl2, pH 9.0, no added alarmone, 625 ± 165 in the source
Excerpt: (§1) product formation by anion exchange chromatography on Sa-RelP

[3] = test system: Nc1nc2c(ncn2[C@@H]2O[C@H](COP(=O)(O)OP(=O)(O)O)[C@@H](O)[C@H]2O)c(=O)[nH]1; assay: product formation by anion exchange chromatography; assay type: biochemical, Staphylococcus aureus; settings: ppGpp synthesis, 2.5 mM ATP, 5 mM MgCl2, pH 9.0, no added alarmone
Excerpt: as §1

[4] = test system: Nc1nc2c(ncn2[C@@H]2O[C@H](COP(=O)(O)OP(=O)(O)OP(=O)(O)O)[C@@H](O)[C@H]2O)c(=O)[nH]1; assay: product formation by anion exchange chromatography; assay type: biochemical, Staphylococcus aureus; settings: pppGpp synthesis, 2.5 mM ATP, 5 mM MgCl2, pH 9.0, no added alarmone
Excerpt: as §1

[5] = test system: Nc1nc2c(ncn2[C@@H]2O[C@H](COP(=O)(O)O)[C@@H](OP(=O)(O)OP(=O)(O)O)[C@H]2O)c(=O)[nH]1; assay: purified protein; settings: hydrolysis (HD domain), 1 mM MnCl2, 10 mM MgCl2, pH 7.8, 25°C
[6] = test system: Nc1nc2c(ncn2[C@@H]2O[C@H](COP(=O)(O)OP(=O)(O)O)[C@@H](O)[C@H]2O)c(=O)[nH]1; assay: purified protein; settings: ppGpp synthesis (SYNTH domain), 8 mM ATP, 6 mM MgCl2, pH 7.8, 25°C
[7] = test system: Nc1nc2c(ncn2[C@@H]2O[C@H](COP(=O)(O)OP(=O)(O)O)[C@@H](OP(=O)(O)OP(=O)(O)O)[C@H]2O)c(=O)[nH]1; assay: purified protein; settings: hydrolysis (HD domain), 1 mM MnCl2, 10 mM MgCl2, pH 7.8, 25°C
[8] = test system: Nc1nc2c(ncn2[C@@H]2O[C@H](COP(=O)(O)OP(=O)(O)OP(=O)(O)O)[C@@H](O)[C@H]2O)c(=O)[nH]1; assay: purified protein; settings: pppGpp synthesis (SYNTH domain), 8 mM ATP, 6 mM MgCl2, pH 7.8, 25°C
[9] = test system: Nc1nc2c(ncn2[C@@H]2O[C@H](COP(=O)(O)OP(=O)(O)OP(=O)(O)O)[C@@H](OP(=O)(O)OP(=O)(O)O)[C@H]2O)c(=O)[nH]1; assay: purified protein; settings: hydrolysis (HD domain), 1 mM MnCl2, 10 mM MgCl2, pH 7.8, 25°C
[10] = target: T2, Sm-RelP (Streptococcus mutans, UniProt Q8DUK1); settings: inhibitor; pGpp synthesis from 1 mM GMP + 1 mM ATP; 2 mM MgCl2; pH 9.0; 37°C
T2 construct: gene SMU_926
Excerpt: AMP formation by anion exchange chromatography, fold change of rate on Sm-RelP

[11] = target: T3, Sm-RelQ (Streptococcus mutans, UniProt Q8DU97); settings: allosteric activator; pGpp synthesis from 1 mM GMP + 1 mM ATP; 2 mM MgCl2; pH 9.0; 37°C
T3 construct: gene SMU_1046c
Excerpt: AMP formation by anion exchange chromatography, fold change of rate on Sm-RelQ

T3 sequence (Q8DU97 entry or part of it): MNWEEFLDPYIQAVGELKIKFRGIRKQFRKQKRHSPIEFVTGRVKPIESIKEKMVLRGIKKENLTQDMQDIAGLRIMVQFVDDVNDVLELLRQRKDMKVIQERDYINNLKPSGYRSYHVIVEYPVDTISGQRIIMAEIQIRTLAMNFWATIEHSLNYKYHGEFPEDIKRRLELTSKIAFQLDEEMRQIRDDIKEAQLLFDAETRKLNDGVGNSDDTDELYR
T1 sequence (Q830U9 entry or part of it): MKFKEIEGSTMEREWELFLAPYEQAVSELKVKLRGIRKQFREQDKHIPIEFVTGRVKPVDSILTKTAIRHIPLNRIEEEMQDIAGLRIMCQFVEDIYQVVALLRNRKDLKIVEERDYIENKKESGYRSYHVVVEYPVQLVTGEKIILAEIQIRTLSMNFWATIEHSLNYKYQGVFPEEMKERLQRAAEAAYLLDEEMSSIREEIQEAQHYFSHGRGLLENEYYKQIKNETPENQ
T2 sequence (Q8DUK1 entry or part of it): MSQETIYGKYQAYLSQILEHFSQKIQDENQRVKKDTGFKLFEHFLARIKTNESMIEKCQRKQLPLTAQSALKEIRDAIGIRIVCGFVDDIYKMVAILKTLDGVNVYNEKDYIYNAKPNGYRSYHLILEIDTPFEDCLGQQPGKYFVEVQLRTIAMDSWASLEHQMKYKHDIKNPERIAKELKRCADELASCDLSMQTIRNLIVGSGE

Question: Nc1nc2c(ncn2[C@@H]2O[C@H](COP(=O)(O)OP(=O)(O)O)[C@@H](OP(=O)(O)OP(=O)(O)O)[C@H]2O)c(=O)[nH]1 [ppGpp, guanosine-3’,5’-bis(diphosphate)] was tested. Which “+ 100 μM ppGpp / Fold-change” value [1] did it give?
Answer: Its value is 7.8 ± 0.6 fold.

Question: With “Sa-RelP (Staphylococcus aureus subsp. aureus NCTC 8325)” as the compound, how does the Km [2] read?
Answer: Its Km is 625 ± 169 µM.

Question: And the Vmax [2]?
Answer: The Vmax was 3.6 µM/min.

Question: What about the kcat [2] of the same compound?
Answer: Its kcat is 0.06 ± 0.01 s⁻¹.

Question: And the kcat/Km [2]?
Answer: The kcat/Km was 90 ± 20 M⁻¹ s⁻¹.

Question: What about the Km [3] of the same compound?
Answer: Its Km is 177 ± 52 µM.

Question: What about the Vmax [3] of the same compound?
Answer: Its Vmax is 12 µM/min.

Question: And the kcat [3]?
Answer: The kcat was 0.78 ± 0.08 s⁻¹.

Question: And the kcat/Km [3]?
Answer: Its kcat/Km is 4430 ± 900 M⁻¹ s⁻¹.

Question: And the Km [4]?
Answer: The Km was 80 ± 21 µM.

Question: And the Vmax [4]?
Answer: Its Vmax is 6 µM/min.

Question: And the kcat [4]?
Answer: The kcat was 0.38 ± 0.03 s⁻¹.

Question: What about the kcat/Km [4] of the same compound?
Answer: Its kcat/Km is 4750 ± 1000 M⁻¹ s⁻¹.

Question: What does the source list for “Sa-Rel (Staphylococcus aureus subsp. aureus MRSA252)”?
Answer: Km [5]: 16.9 ± 2.1 µM; Vmax [5]: 4.08 µM/min; kcat [5]: 0.68 s⁻¹; kcat/Km [5]: 40000 M⁻¹ s⁻¹; Km [6]: 434.9 ± 61.2 µM; Vmax [6]: 1.08 µM/min; kcat [6]: 0.018 s⁻¹; kcat/Km [6]: 41 M⁻¹ s⁻¹; Km [7]: 21.7 ± 2.8 µM; Vmax [7]: 3.6 µM/min; kcat [7]: 0.6 s⁻¹; kcat/Km [7]: 27500 M⁻¹ s⁻¹; Km [8]: 114.3 ± 15.7 µM; Vmax [8]: 3.84 µM/min; kcat [8]: 0.064 s⁻¹; kcat/Km [8]: 560 M⁻¹ s⁻¹; Km [9]: 14.2 ± 1.3 µM; Vmax [9]: 4.68 µM/min; kcat [9]: 0.78 s⁻¹; kcat/Km [9]: 55200 M⁻¹ s⁻¹

Question: How did the “+ 100 μM pppGpp / Fold-change” value [10] turn out when Nc1nc2c(ncn2[C@@H]2O[C@H](COP(=O)(O)OP(=O)(O)OP(=O)(O)O)[C@@H](OP(=O)(O)OP(=O)(O)O)[C@H]2O)c(=O)[nH]1 [pppGpp, guanosine-5’-triphosphate 3’-diphosphate] was run?
Answer: The value was 0.3 ± 0.1 fold.

Question: And the “+ 100 μM pppGpp / Fold-change” value [11]?
Answer: Its value is 572 ± 149 fold.
